In patent publication US20210210159A1, “COMPUTATIONAL PROTEIN DESIGN USING TERTIARY OR QUATERNARY STRUCTURAL MOTIFS” (Trustees of Dartmouth College, priority 2018, published 2021):

Tests used:
[1] = Fast Protein Liquid Chromatography / size-exclusion chromatography, oligomeric state; type: physicochemical; details: concentration of at least 10 μM
Description: Based on the standards, the dimeric protein would be expected to elute at the volume indicated by a dotted line, which eliminates the possibility of design oligomerization.

[2] = Chemical denaturation by guanidinium hydrochloride (GuHCl), chromophore absorbance at 587 nm; type: physicochemical; details: compared with original mCherry
Description: Degree of foldedness was monitored via chromophore absorbance at 587 nm. Because the chromophore rapidly […], this constitutes a sensitive metric of structure. Data are fit to the Hill equation, with the concentration of half denaturation noted in the legend.
Thus, by all measures, the designed protein, which differs from the original mCherry in 48 positions, preserved the starting structure and even function.

B1: design: TERM-based surface-redesigned mCherry, 48 of 64 variable surface positions changed (SEQ ID NO. 2) (protein)
chain: MVSKGEEDNMAIIKEFMTFEVEMEGTVNGHPFRIRGSGGGDPYEGTQTARLEVVEGGPLPFAWDILSPQFMYGSKAYVKHPADIPDYLKLSFPEGFTWTRTMEFEDGGTVKVTQTSTLKDGKFHYKVKLTGSNFPSDGPVMQKKTMGWEASTERMRPKDGKLEGEIDQELRLKDGGYYRARVRTTYKAKKPVQLPGAYTVRIRLEITSHNEDYTEVEQTETAKGEHSTGGMDELYK
modifications: TERM-based designed sequence
[1]
  oligomeric state in solution: monomeric
[2]
  protection of chromophore on chemical denaturation: approximately as well as the original mCherry
